Source: patent US20180134765A1 (AVIDBIOTICS, published 2018)

How the values were obtained:
OMCP-α3-iFv.2 = target: T1, OMCP-α3-iFv.2; assay: ELISA: protein captured on FGFR3 detected with NKG2D-Fc
T1 construct: also called NKG2DL-α3-iFv.2 (OMCP)

ULBP4-Fc [1] = target: T2, ULBP4-Fc (UniProt Q8TD07 31-225); assay: plate ELISA: biotinylated natural NKG2D ectodomain titrated on coated ligand-Fc
T2 construct: Bought, R&D Systems; not shown: Fc part of the bought reagent
T2 sequence (looked up): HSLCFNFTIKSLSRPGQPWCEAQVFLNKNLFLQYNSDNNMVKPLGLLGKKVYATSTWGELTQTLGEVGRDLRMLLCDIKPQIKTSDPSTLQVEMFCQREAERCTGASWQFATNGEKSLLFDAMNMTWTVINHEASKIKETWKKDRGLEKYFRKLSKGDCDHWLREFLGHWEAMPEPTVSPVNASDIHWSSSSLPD

MICwed-Fc [2] = assay: ELISA: ligand-Fc coated at 2 ug/ml, biotinylated NKG2D ectodomain titrated, streptavidin-HRP
ULBP2-Fc [3] = target: T3, ULBP2-Fc (UniProt Q9BZM5 26-217); assay: as above
T3 construct: Bought, R&D Systems; not shown: Fc part of the bought reagent
T3 sequence (looked up): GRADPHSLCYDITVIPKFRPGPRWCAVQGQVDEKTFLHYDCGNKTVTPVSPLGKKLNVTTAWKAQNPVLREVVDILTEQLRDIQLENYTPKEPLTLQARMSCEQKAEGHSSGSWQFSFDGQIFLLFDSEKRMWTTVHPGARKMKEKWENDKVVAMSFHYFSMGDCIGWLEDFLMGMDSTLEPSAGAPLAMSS

ULBP3-Fc [4] = target: T4, ULBP3-Fc (UniProt Q9BZM4 30-217); assay: as above
T4 construct: Bought, R&D Systems; not shown: Fc part of the bought reagent
T4 sequence (looked up): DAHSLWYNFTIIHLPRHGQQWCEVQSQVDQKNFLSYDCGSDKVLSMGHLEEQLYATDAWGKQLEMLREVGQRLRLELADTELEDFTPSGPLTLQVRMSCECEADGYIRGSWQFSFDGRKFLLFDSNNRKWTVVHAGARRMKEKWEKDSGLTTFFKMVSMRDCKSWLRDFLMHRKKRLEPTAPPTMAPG

MICB-Fc [5] = target: T5, MICB-Fc (UniProt Q29980 23-298); assay: as above
T5 construct: Bought, R&D Systems; not shown: Fc part of the bought reagent
T5 sequence (looked up): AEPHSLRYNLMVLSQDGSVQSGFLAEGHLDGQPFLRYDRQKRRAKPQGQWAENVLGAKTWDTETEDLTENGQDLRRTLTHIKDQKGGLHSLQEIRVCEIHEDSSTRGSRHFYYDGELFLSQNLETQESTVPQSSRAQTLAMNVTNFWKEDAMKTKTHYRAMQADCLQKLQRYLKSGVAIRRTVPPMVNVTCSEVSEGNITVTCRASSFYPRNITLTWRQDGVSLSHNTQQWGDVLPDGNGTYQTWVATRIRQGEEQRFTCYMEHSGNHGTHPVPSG

ULBP1-Fc [6] = target: T6, ULBP1-Fc (UniProt Q9BZM6 26-216); assay: as above
T6 construct: Bought, R&D Systems; not shown: Fc part of the bought reagent
T6 sequence (looked up): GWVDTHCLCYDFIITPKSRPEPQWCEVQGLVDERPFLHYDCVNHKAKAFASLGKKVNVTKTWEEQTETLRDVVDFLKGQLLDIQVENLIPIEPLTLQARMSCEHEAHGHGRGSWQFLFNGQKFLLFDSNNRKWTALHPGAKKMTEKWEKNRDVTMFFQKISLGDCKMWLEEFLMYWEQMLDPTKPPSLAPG

MICv25-Fc [7] = target: T7, MICv25-Fc; assay: ELISA: ligand-Fc coated at 2 ug/ml, biotinylated NKG2D Y199A ectodomain titrated, streptavidin-HRP
T7 construct: also called MIC-v25 α1-α2 domain ligand

MICwed-Fc [8] = assay: as above
ULBP4-Fc [9] = target: T2, ULBP4-Fc; assay: as above
ULBP2-Fc [10] = target: T3, ULBP2-Fc; assay: as above
ULBP3-Fc [11] = target: T4, ULBP3-Fc; assay: as above
MICA-Fc [12] = target: T8, MICA-Fc; assay: as above
T8 construct: also called natural α1-α2-α3-Fc fusion
T8 chain: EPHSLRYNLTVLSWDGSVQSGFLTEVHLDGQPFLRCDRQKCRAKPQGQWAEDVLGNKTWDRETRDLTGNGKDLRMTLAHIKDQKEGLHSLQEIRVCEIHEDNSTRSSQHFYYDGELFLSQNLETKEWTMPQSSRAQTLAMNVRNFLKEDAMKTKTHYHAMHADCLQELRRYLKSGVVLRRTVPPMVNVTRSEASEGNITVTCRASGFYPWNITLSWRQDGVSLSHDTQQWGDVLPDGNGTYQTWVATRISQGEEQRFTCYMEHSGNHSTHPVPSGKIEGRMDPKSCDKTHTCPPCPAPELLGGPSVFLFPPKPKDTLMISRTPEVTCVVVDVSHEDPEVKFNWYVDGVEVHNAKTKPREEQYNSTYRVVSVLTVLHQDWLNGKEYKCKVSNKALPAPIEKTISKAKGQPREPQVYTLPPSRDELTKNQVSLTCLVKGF

MICB-Fc [13] = target: T5, MICB-Fc; assay: as above
ULBP1-Fc [14] = target: T6, ULBP1-Fc; assay: as above
MICv25-Fc [15] = target: T7, MICv25-Fc; assay: ELISA: ligand-Fc coated at 2 ug/ml, biotinylated NKG2D Y152A, Y199A ectodomain titrated, streptavidin-HRP
MICwed-Fc [16] = assay: as above
ULBP4-Fc [17] = target: T2, ULBP4-Fc; assay: as above
ULBP2-Fc [18] = target: T3, ULBP2-Fc; assay: as above
ULBP3-Fc [19] = target: T4, ULBP3-Fc; assay: as above
MICA-Fc [20] = target: T8, MICA-Fc; assay: as above
MICB-Fc [21] = target: T5, MICB-Fc; assay: as above
ULBP1-Fc [22] = target: T6, ULBP1-Fc; assay: as above
MICwed-Fc [23] = assay: ELISA: ligand-Fc coated at 2 ug/ml, biotinylated NKG2D Y152A ectodomain titrated, streptavidin-HRP
ULBP4-Fc [24] = target: T2, ULBP4-Fc; assay: as above
ULBP2-Fc [25] = target: T3, ULBP2-Fc; assay: as above
ULBP3-Fc [26] = target: T4, ULBP3-Fc; assay: as above
MICA-Fc [27] = target: T8, MICA-Fc; assay: as above
MICB-Fc [28] = target: T5, MICB-Fc; assay: as above
ULBP1-Fc [29] = target: T6, ULBP1-Fc; assay: as above

B1: human NKG2D-Fc (Fc fusion)
chain: FLNSLFNQEVQIPLTESYCGPCPKNWICYKNNCYQFFDESKNWYESQASCMSQNASLLKVYSKEDQDLLKLVKSYHWMGLVHIPTNGSWQWEDGSILSPNLLTIIEMQKGDCALYASSFKGYIENCSTPNTYICMQRTV
notes: also called natural NKG2D-Fc; not shown: Fc part
OMCP-α3-iFv.2
  binding result: binds

B2: His-avitag-natural NKG2D (receptor)
chain: EPHHHHHHGLNDIFEAQKIEWHENSLFNQEVQIPLTESYCGPCPKNWICYKNNCYQFFDESKNWYESQASCMSQNASLLKVYSKEDQDLLKLVKSYHWMGLVHIPTNGSWQWEDGSILSPNLLTIIEMQKGDCALYASSFKGYIENCSTPNTYICMQRTV
modifications: biotin on the avitag sequence (BirA)
notes: also called natural NKG2D ectodomain; wild type NKG2D
ULBP4-Fc [1]
  binding result: binds
MICwed-Fc [2]
  EC50 (read off the curve): ~100 nM
ULBP2-Fc [3]
  binding result: binds
ULBP3-Fc [4]
  binding result: binds
MICB-Fc [5]
  binding result: binds
ULBP1-Fc [6]
  binding result: binds

B3: Y199A NKG2D ectodomain (receptor)
chain: EPHHHHHHGLNDIFEAQKIEWHENSLFNQEVQIPLTESYCGPCPKNWICYKNNCYQFFDESKNWYESQASCMSQNASLLKVYSKEDQDLLKLVKSYHWMGLVHIPTNGSWQWEDGSILSPNLLTIIEMQKGDCALYASSFKGAIENCSTPNTYICMQRTV
modifications: biotin on the avitag sequence (BirA)
notes: Expressed with His-avitag; also called non-natural NKG2D mutant Y199A
MICv25-Fc [7]
  binding result: no binding (tested: 2000 nM)
MICwed-Fc [8]
  binding result: no binding (tested: 2000 nM)
ULBP4-Fc [9]
  binding result: no binding (tested: 2000 nM)
ULBP2-Fc [10]
  binding result: no binding (tested: 2000 nM)
ULBP3-Fc [11]
  binding result: no binding (tested: 2000 nM)
MICA-Fc [12]
  binding result: no binding (tested: 2000 nM)
MICB-Fc [13]
  binding result: no binding (tested: 2000 nM)
ULBP1-Fc [14]
  binding result: no binding (tested: 2000 nM)

B4: Y152A plus Y199A NKG2D ectodomain (receptor)
chain: EPHHHHHHGLNDIFEAQKIEWHENSLFNQEVQIPLTESYCGPCPKNWICYKNNCYQFFDESKNWYESQASCMSQNASLLKVYSKEDQDLLKLVKSAHWMGLVHIPTNGSWQWEDGSILSPNLLTIIEMQKGDCALYASSFKGAIENCSTPNTYICMQRTV
modifications: biotin on the avitag sequence (BirA)
notes: Expressed with His-avitag; also called non-natural NKG2D double mutant Y152A and Y199A
MICv25-Fc [15]
  binding result: no binding (tested: 2000 nM)
MICwed-Fc [16]
  binding result: no binding (tested: 2000 nM)
ULBP4-Fc [17]
  binding result: no binding (tested: 2000 nM)
ULBP2-Fc [18]
  binding result: no binding (tested: 2000 nM)
ULBP3-Fc [19]
  binding result: no binding (tested: 2000 nM)
MICA-Fc [20]
  binding result: no binding (tested: 2000 nM)
MICB-Fc [21]
  binding result: no binding (tested: 2000 nM)
ULBP1-Fc [22]
  binding result: no binding (tested: 2000 nM)

B5: Y152A NKG2D ectodomain (receptor)
chain: EPHHHHHHGLNDIFEAQKIEWHENSLFNQEVQIPLTESYCGPCPKNWICYKNNCYQFFDESKNWYESQASCMSQNASLLKVYSKEDQDLLKLVKSAHWMGLVHIPTNGSWQWEDGSILSPNLLTIIEMQKGDCALYASSFKGYIENCSTPNTYICMQRTV
modifications: biotin on the avitag sequence (BirA)
notes: Expressed with His-avitag; also called non-natural NKG2D mutant Y152A; Y152A mutant NKG2D ectodomain
MICwed-Fc [23]
  binding result: no binding (tested: 2000 nM)
ULBP4-Fc [24]
  binding result: no binding (tested: 2000 nM)
ULBP2-Fc [25]
  binding result: no binding (tested: 2000 nM)
ULBP3-Fc [26]
  binding result: no binding (tested: 2000 nM)
MICA-Fc [27]
  binding result: no binding (tested: 2000 nM)
MICB-Fc [28]
  binding result: no binding (tested: 2000 nM)
ULBP1-Fc [29]
  binding result: no binding (tested: 2000 nM)
